Our source for the stoichiometry N values is article PMC4132020.

By stoichiometry N is commonly meant a count of units in the complex or per binding partner.

In this assay the target is Sso7d-IN with an 11 glycine linker (Sulfolobus solfataricus chromosomal protein Sso7d fused to the N-terminus of HIV-1 integrase) (Sulfolobus solfataricus | HIV-1). Nature of the assay: SEC; Superdex 200 PC 3.2/30, 20 mM HEPES pH 7.5, 20% glycerol, 5 mM DTT, 500 mM NaCl; free protein peak of a scaled-up intasome assembly mixture (with U5-25 DNA, CaCl2, 4 µM ZnCl2) after addition of 500 mM NaCl; position relative to protein standards.

Turning to “Sso7d-IN with an 11 glycine linker (Sulfolobus solfataricus chromosomal protein Sso7d fused to the N-terminus of HIV-1 integrase) (enzyme)”, the stoichiometry N was 4.
